# Patent publication US11739297B2, “Method of increasing tumor killing activity of macrophages or monocytes comprising chimeric antigen receptor” (Carisma Therapeutics Inc., priority 2020, dated 2023)
# B1: CD40L: Recombinant CD40 ligand (Peprotech), CD40 agonist (protein, UniProt P29965 113-261, looked up)
# CD40 ligand, soluble form: MQKGDQNPQIAAHVISEASSKTTSVLQWAEKGYYTMSNNLVTLENGKQLTVKRQGLYYIYAQVTFCSNREASSQAPFIASLCLKSPGRFERILLRAANTHSSAKPCGQQSIHLGGVFELQPGASVFVNVTDPSQVSHGTGFTSFGLLKL
# B2: IFN-γ: interferon cytokine that induces an M1 phenotype (protein, UniProt P01579 24-161, looked up)
# Interferon gamma: QDPYVKEAENLKKYFNAGHSDVADNGTLFLGILKNWKEESDRKIMQSQIVSFYFKLFKNFKDDQSIQKSVETIKEDMNVKFFNSNKKKRDDFEKLTNYSVTDLNVQRKAIHELIQVMAELSPAAKTGKRKRSQMLFRG
# Columns and labels:
# [1] = test system: HER2+ breast cancer cells (CRL2351); test: Cytokine secretion of interferon treated HER2 CAR macrophages in co-culture (MSD); format: cell-based, human; settings: 150 nM CAR mRNA, E:T 3:1, 48 hours co-culture
# Protocol: Human macrophages were electroporated with 150 nM HER2 CAR mRNA comprising m6AGCap1 and PsU modifications. HER2+ breast cancer cells (CRL2351) were co-cultured with CAR macrophages after the macrophages were transfected with the CAR mRNA at an Effector (CAR macrophage) to Target (cancer cell) ratio of 3:1. Supernatant was collected 48 hours after the cancer cells and macrophages were co-cultured and cytokine levels were measured using a Meso Scale Discovery (MSD) instrument.
# human macrophages [2] = test: Viability, CAR expression and M1/M2 markers of HER2 CAR mRNA electroporated macrophages cultured with cytokines; format: cell-based; settings: mRNA transfected CAR macrophages
# Protocol: Human macrophages were electroporated with HER2 CAR mRNA comprising m6AGCap1 and PsU modifications. Cells were cultured with cytokines that induce an M1 phenotype such as IFN-alpha, IFN-beta, IFN-gamma, IFN-gamma plus lipopolysaccharide (LPS), TNF-alpha, IL-6 or a STING ligand (STING-L) for up to 48 hours and then cytokines were washed off and fresh media was added. CAR expression and M1 marker expression were measured on days 2 and 7 after transfection. Fluorescent labeled HER2+ breast cancer cells (CRL2351) were co-cultured with HER2 CAR macrophages two days after the macrophages were transfected. Cancer cell growth was monitored via its fluorescence on an Incucyte® live imaging microscope every four hours. The Effector (CAR macrophage) to Target (cancer cell) ratio was 5:1.
# Five different mRNA modifications were also tested to determine if interferon treatment differentially affected macrophages transfected with mRNA comprising different modifications. Human macrophages were electroporated with HER2 CAR mRNA comprising different mRNA modifications. CAR expression and M1 markers were detected by Flow Cytometry (Attune) on day four after electroporation. Day 4 CAR macrophage cells were then co-cultured with a Nuc-Light labeled, HER2+ breast cancer cell line (CRL2351) at an Effector (CAR macrophage) to Target (cancer cell) ratio of 5:1. Cancer cell growth was monitored via its fluorescence on an Incucyte® live imaging microscope every four hours.
# Human macrophages were electroporated with 300 nM CAR mRNA comprising m6AGCap1 and PsU modifications. Cells were cultured with 20 ng/mL IFNs for 24 hours and then the cells were washed to remove cytokines. CAR expression was detected by Flow Cytometry (Attune) on day 2 after transfection. Cells were then co-cultured with a Nuc-Light labeled, HER2+ breast cancer cell line (CRL2351) at the Effector to Target ratio of 3:1. Cancer cell growth was monitored via its fluorescence on an Incucyte® live imaging microscope. CAR expression and M1 markers in macrophages were detected by Flow Cytometry (Attune) on day 7 after transfection.
# [3] = test system: Her2-Zeta CAR expressing macrophages; test: M1 and M2 surface marker expression after agonist priming (flow cytometry); format: cell-based, human; settings: mRNA transduced CAR macrophages, 3 days on agonist coated wells
# Protocol: (§1) To generate Her2-Zeta CAR expressing macrophages, primary human macrophages were suspended in EP buffer (MaxCyte) containing 300 nM mRNA (TriLink) at a concentration of 90×10^6 cells/mL. 100 μL of cell mixture was added to an electroporation cassette (OC100×2; MaxCyte) and electroporated using the Experimental T cell 1 setting. Cells were removed from the cassette, plated in 3 mL of TexMACS media (Miltenyi Biotech) containing 20% FBS (Gibco) on UpCell plates (Thermo Scientific), and incubated overnight at 37 C and 5% CO2.
# (§2) Recombinant CD40 ligand (Peprotech), 4-1BB ligand (Enzo Life Sciences), and 4-1BB receptor (Peprotech) were resuspended in molecular grade water to a stock concentration of 100 μg/mL. Stock solution was then used to create working solutions in PBS ranging from 2-0.002 μg/mL. 100 uL of working solution was added to wells in a 96-well plate and left at room temperature for 4 h.
# For detection of cell surface proteins, macrophages were plated onto wells coated with agonist molecules in a final volume of 200 uL TexMACS media+10% FBS+10 ng/mL GM-CSF and incubated for 3 days at 37 C and 5% CO2. Cells were incubated in 300 μL Accutase (Sigma) for 30 min and transferred to 96-well round bottom plate for staining. Cells were incubated in FACS buffer containing 20 μg/mL Her2-His for 20 min at RT, followed by incubation in Human TruStain FcX for 10 min at RT. […]
# [4] = test system: CRL-2351 cells expressing nuclear GFP; test: Tumor cell killing by macrophages primed on agonist coated plates (Incucyte); format: cell-based, human; settings: plate-coated agonist, 3 h priming
# Protocol: as §1, §2
# Plates were removed from the incubator and left at room temperature for 30 min. Cells were detached from plate, counted using the NC-200 automated cell counter (Chemomtech), and re-suspended in TexMACS media with 10% FBS. […] Cell lysis was detected using Incucyte® analysis (Essen Bioscience). Tumor cell death was calculated by integrated GFP intensity per well relative to time 0.
# human macrophages [5] = test: mCherry mRNA expression in transfected macrophages (Incucyte); format: cell-based; settings: mCherry mRNA (m6AGCap1 and PsU or N1mPsU), one day, different doses
# Protocol: Human macrophages were transfected with mCherry mRNA comprising m6AGCap1 and PsU or N1mPsU modifications and were then cultured for one day with different doses of IFN-γ. mCherry expression was monitored on an Incucyte® live imaging microscope.
# In order to determine whether an RNaseL inhibitor could rescue IFN-γ-induced instability of transfected mRNA, human macrophages were treated with 1 μM sunitinib (an RNaseL inhibitor) two hours prior to the transfection of mCherry mRNA comprising m6AGCap1 and PsU modifications. Transfected cells were then cultured for one day with different dosages of IFN-γ. mCherry expression was monitored on an Incucyte® live imaging microscope.
# The effect of another RNaseL inhibitor (RLI or ABCE1) was also tested to further validate the concept. Human macrophages were co-transfected with mRNA encoding mCherry comprising m6AGCap 1 and PsU modifications and with mRNA encoding ABCE1.
Molecule,"secretion of the cytokines IL-6, IL-8 and TNFα [1]",M1 phenotype (based on CD86 expression) (human macrophages [2]),M2 markers (based on CD163 expression) (human macrophages [2]),M1 phenotype (expression of M1 and M2 markers) [3],tumor killing ability of macrophages and CAR macrophages [4],mCherry expression (human macrophages [5])
IFN-α,increased secretion,induction of an M1 phenotype,reduction of M2 markers,–,–,–
B1,–,–,–,induced an M1 phenotype,significantly improved the tumor killing ability,–
B2,increased secretion,induction of an M1 phenotype,reduction of M2 markers,–,–,reduced mCherry mRNA expression
